Experimental data reported in patent US20170306031A1 (NGM BIOPHARMACEUTICALS, published 2017).

T1: mouse GFRAL (analyte in Biacore assays) (mouse, UniProt Q6SJE0 20-349, limits assumed)
T1 construct: injected in solution over captured antibody
T1 sequence: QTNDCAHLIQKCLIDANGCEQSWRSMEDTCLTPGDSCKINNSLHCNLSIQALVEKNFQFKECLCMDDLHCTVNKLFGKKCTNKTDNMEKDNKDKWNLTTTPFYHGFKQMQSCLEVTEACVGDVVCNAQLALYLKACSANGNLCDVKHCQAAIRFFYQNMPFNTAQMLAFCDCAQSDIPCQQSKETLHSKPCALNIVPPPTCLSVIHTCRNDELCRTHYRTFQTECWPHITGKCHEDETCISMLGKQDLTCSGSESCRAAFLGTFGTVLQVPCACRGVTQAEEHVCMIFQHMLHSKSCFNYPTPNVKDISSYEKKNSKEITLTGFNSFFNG

T2: human GFRAL (analyte in Biacore assays) (human, UniProt Q6UXV0 19-351, limits assumed)
T2 construct: injected in solution over captured antibody; also called hGFRAL
T2 sequence: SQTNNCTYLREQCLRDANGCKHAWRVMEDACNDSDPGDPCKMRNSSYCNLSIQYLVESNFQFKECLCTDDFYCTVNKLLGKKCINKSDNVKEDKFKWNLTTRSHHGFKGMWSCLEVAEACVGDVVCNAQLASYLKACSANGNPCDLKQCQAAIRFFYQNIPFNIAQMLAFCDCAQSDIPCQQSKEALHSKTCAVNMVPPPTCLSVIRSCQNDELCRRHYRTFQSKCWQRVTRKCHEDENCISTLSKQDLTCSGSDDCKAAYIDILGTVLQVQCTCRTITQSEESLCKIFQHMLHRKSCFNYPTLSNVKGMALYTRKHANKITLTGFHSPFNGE

T3: human GFRAL expressed on cells (human, UniProt Q6UXV0 20-394)
T3 sequence: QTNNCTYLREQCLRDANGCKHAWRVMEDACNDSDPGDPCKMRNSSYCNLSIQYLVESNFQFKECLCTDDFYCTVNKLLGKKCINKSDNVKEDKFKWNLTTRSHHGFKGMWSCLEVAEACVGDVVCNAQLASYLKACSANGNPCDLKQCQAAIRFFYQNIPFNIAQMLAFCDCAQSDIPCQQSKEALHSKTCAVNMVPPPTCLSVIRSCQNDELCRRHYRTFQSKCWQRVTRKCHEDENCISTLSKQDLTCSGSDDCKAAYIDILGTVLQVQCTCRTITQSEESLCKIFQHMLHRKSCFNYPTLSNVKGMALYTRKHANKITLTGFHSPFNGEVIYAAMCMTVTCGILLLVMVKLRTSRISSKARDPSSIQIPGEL


What was measured:
[1] = biological target: T1, mouse GFRAL (analyte in Biacore assays); assay: Biacore SPR, antibody captured, GFRAL injected
Experimental: (§1) In addition, the binding affinity of antibodies to human and mouse GFRAL were measured. For example, antibodies were rank ordered based on their binding affinity to human GFRAL and mouse GFRAL by low resolution KD measurement by Biacore. Briefly, an anti-mouse Fc antibody (Sigma-Aldrich, St. Louis, Mo.) was immobilized on all four flow cells of a CM5 chip using amine coupling reagents (GE Healthcare LifeSciences, Piscataway, N.J.). Purified antibodies were captured (˜100 RUs) on flow cells 2, 3 and 4 using flow cell 1 as a reference. This was followed by injection of human or mouse GFRAL (25 nM in PBS-P buffer) at a flow rate of 70 μL/m in and monitoring the binding kinetics at 25° C.
(§2) Binding affinity measurements were also made in additional Biacore based assays. For example, equilibrium dissociation constant (KD) measurements were carried out with purified antibodies to evaluate their binding to human GFRAL or mouse GFRAL. As mentioned above, anti-mouse Fc antibody (Sigma-Aldrich, St. Louis, Mo.) was immobilized on all four flow cells of a CM5 chip using amine coupling reagents (GE Healthcare LifeSciences, Piscataway, N.J.). Purified antibodies were captured (˜100 RUs) on flow cells 2, 3 and 4 using flow cell 1 as a reference. This was followed by injection of human or mouse GFRAL in PBS-P buffer) at a flow rate of 70 μL/min and the binding kinetics were evaluated at 25° C.

[2] = biological target: T2, human GFRAL (analyte in Biacore assays); assay: Biacore SPR, antibody captured, GFRAL injected
Experimental: as §1, §2

[3] = biological target: T3, human GFRAL expressed on cells; assay: cell-based or functional assay
[4] = biological target: T3, human GFRAL expressed on cells; assay: cell-based or functional assay; remark: listed apart in the source

binding result [1]	Kd [2]	koff [2]	IC50, ELK1-luciferase reporter (hGFRAL/hRET) [3]	IC50, ERK phosphorylation in U2OS hGFRAL/hRET cells [4]	Binder
no binding	0.21 nM	8.99e-05 s⁻¹			antibody designated P1H8 (antibody, V domains shown, mouse hybridoma monoclonal) VH: EVQLQQSGPELVKPGASVKISCKASGYTFTDYYMNWVKQSHGKSLEWIGDINPNNGGTTYNQKFKGKATLTVDKSSSTAYMELRSLTSEDSAVYYCARQGPWYFDVWGTGTTVTVSS VL: DVLMTQTPLSLPVSLGDQASISCRSSQTIVHSNGYTYLEWYLQKPGQSPKLLIYKVSNRFSGVPDRFSGSGSGTDFTLKISRVEAEDLGVYYCFQGSHVPWTFGGGTKLEIK
no binding	0.23 nM	6.77e-05 s⁻¹	7.18 nM		antibody designated 2I23 (antibody, V domains shown, mouse hybridoma monoclonal) VH: QAQLQQSGAELVKPGASVKLSCKASGYSFTSYNIDWVRQRPEQGLEWIGWIFPGDGSTKYNEKFKGQATLTTDKSSSTTYIHLSRLTSEDSAVYFCARSGIYYGSHFVYWGQGTLVTVSA VL: not shown
no binding	0.11 nM	7.57e-05 s⁻¹			antibody designated 1A3 (antibody, V domains shown, mouse hybridoma monoclonal) VH: EVQLQQSGPELVKPGASVKISCKASGFTFTDYYMNWVKQSHGKSLEWIGDIIPNNGVTSYNQKFKGKATLTVDKSSSTAYMELRSLTSEDSAVYYCAREWLLRGMDYWGQGTSVTVSS VL: DIVMTQAAFSNPVTLGTSASISCRSSKSLLHSNGITYLYWYLQKPGQSPQLLIYQMSNLASGVPDRFSSSGSGTDFTLRISRVEAEDVGVYYCAQHLELTWTFGGGTKLEIK
no binding	0.14 nM	9.72e-05 s⁻¹			antibody designated P1B6 (antibody, V domains shown, mouse hybridoma monoclonal) VH: EVQLQQSGPELVKPGASVKMSCKASGYTFTDYYMNWVKQTHGKSLEWIGDINPNNGGPIYNQKFKGKATLTVDKSSSTAYMELRSLTSEDSAVYYCARSDSAWFTYWGQGTLVTVSA VL: QIVLTQSPAIMSASPGEKVTMTCSASSSVSYMYWYQQKPGSSPRLLIYDTSNLASGVPVRFSGSGSGTFYSITISRMEAEDAATYYCQQWNSYPPTFGGGTKLEIK
no binding	0.16 nM	9.93e-05 s⁻¹	1.62 nM	0.27 nM	antibody designated 6N16 (antibody, V domains shown, mouse hybridoma monoclonal) VH: QVQLQQSGSELVKPGTSMKLSCKASGYTFTSYNINWVRLRPEQGLEWIGWIFPGDDSIKYNENFRGKATLTTDKSSSTAYMHLSRLTSDDSAVYFCARSGIFYGNNFAYWGQGTLVTVSA VL: DVVMTQAPLILSVTIGQPASISCKSSQSLLDGDGETYLSWLLQRPGQSPKRLIYLVSKLDSGVPDRFTGSGSGTDFTLKISRVEAEDLGVYYCCQSTHFPLTFGAGTKLELK
no binding	0.21 nM	0.000276 s⁻¹			antibody designated P8G4 (antibody, V domains shown, mouse hybridoma monoclonal) VH: QVQLKQSGPGLVQPSQSLSITCTVSGFSLTSYGVHWVRQSPGKGLDWLGVLWSGGSTDYNAAFISRLSISKDNSKSQVFFKMNSLQADDTAIYYCARNFGDYWGQGTSVTVSS VL: QIVLTQSPAIMSASPGEKVTMTCSASSRVSYMHWYQQKSGTSPKRWIYDTSKLASGVPARFSGSGSGTSYSLTISSMEAEDAATYYCQQWNNNPPTFGAGTTLELK
	< 0.1 nM	7.2e-05 s⁻¹	1.79 nM	0.28 nM	antibody designated 8C10 (antibody, V domains shown, mouse hybridoma monoclonal) VH: QVQLQQSGVELARPGAAVKLSCKASGYTFANYGLTWVKQRTGQGLEWIGEIYPGSGHTHYNEDFKGKATLTADRSSSTAYMELRSLTSEDSAVYFCARRIQLLLPVGGFVYWGQGTLVTVSA VL: DFVLTQSPATLSVTPGDSVSLSCRASQSISNNLHWYQQKSHESPRLLIKYASQSISGIPSRFSGSGSGTDFTLSINSVETEDFGVYFCQQSNSWPHTFGGGTKLEIK
